Results taken from patent US20260256879A1, “COMBINATION THERAPY WITH MEK INHIBITORS FOR THE TREATMENT OF CANCER” (FUNDACIÓ PRIVADA INSTITUT D'INVESTIGACIÓ ONCOLÒGICA DE VALL …, priority 2023, published 2026).

Test system: SkMel28 cells
Experiment: AlamarBlue cell viability, 5 days of treatment, alone or in combination; synergy by SynergyFinder 3.0 (ZIP)
Type: cell-based, human
Conditions: SkMel28, 5 days, FIG. 1A
Experimental: Omomyc in Combination with MEK Inhibitors Acts Synergistically in Decreasing the Viability of Melanoma Cancer Cells Two human melanoma cell lines with mutations in BRAF (BRAF^V600E) (SkMel28 and SkMel37) were used. Cells were plated in 96 well plates and treated on the following day with increasing concentrations of Trametinib and Omomyc, alone or in combination. After 5 days of treatment, media was removed and AlamarBlue™ Cell Viability Reagent was added to each well, incubated for 3 hours until metabolized, and fluorescence was read with a microplate reader using an excitation between 530-560 and an emission at 590 nm.
Synergy was evaluated using SynergyFinder 3.0 web application derived from Ianevsky A et al. Nucleic Acids Res. 2022; 50(W1):W739-W743.
Synergy scores can be interpreted as the average excess response due to drug interactions. Synergy scores close to 0 give limited confidence in synergy or antagonism. So, when the synergy scores are: less than −10, the interaction between two drugs is likely to be antagonistic. From −10 to 10, the interaction between two drugs is likely to be additive. Greater than 10, the interaction between two drugs is likely to be synergistic.

B1: Omomyc: Mutated bHLHZip domain of Myc (E61T, E68I, R74Q, R75N); tested polypeptide is SEQ ID NO: 4, N-terminal methionine, produced in E. coli (protein)
chain: MTEENVKRRTHNVLERQRRNELKRSFFALRDQIPELENNEKAPKVVILKKATAYILSVQAETQKLISEIDLLRKQNEQLKHKLEQLRNSCA
modifications: N-terminal methionine
In the case of B1, the “effect of single agent on viability of the cells” value is reported as “reduces the viability”.
